The values below are quoted from earlier work in PMC4698235.

The target of one series is IDE (Homo sapiens) (UniProt P14735).
A further series deals with insulin (Homo sapiens) (UniProt P01308).
UniProt P01308, sequence (P01308 90-110): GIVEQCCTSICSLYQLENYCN

Consider IDE (from UniProt P14735), for which the Kd in the series with IDE (Homo sapiens) and in the series with insulin (Homo sapiens) was 10 nM in each case.
